Bridges are numbered along the chain shown (N, C = ends). [ ]: non-standard residue; d: D form. The star is where a group is joined. Biotin = O=C1N[C@H]2[C@H](CS[C@H]2CCCCC(=O)*)N1; S5 = C=CCCC[C@](C)(N)C(=O)O; AEEEA = NCCOCCOCCOCC(=O)O
B1: SCR1, scrambled stapled control peptide for WAHM1 (peptide)
peptide: {Biotin-AEEEA}-SRA[S5]LLI[S5]TKIQNELK-NH2
modifications: staple 4-8; not fully specified
notes: Negative control; also called scrambled control (SCR) peptide 1; SCR peptides
B2: SCR2, scrambled stapled control peptide for WAHM2 (peptide)
peptide: {Biotin-AEEEA}-TRAILL[S5]ITK[S5]QNELK-NH2
modifications: staple 7-11; not fully specified
notes: Negative control; also called SCR peptides

Molecular target: T1, Cytoplasmic FMR1-interacting protein 1 (CYFIP1), endogenous in MDA-MB-231 cells (human, UniProt Q7L576 1-1253)
T1 construct: Endogenous protein of a human breast cancer cell line, detected by western blot; also called SRA1
Assay: avidin-biotin pull-down with biotinylated peptide from treated MDA-MB-231 cells, western blot
Protocol: Specially, to determine the physical interaction with individual peptides, MDA-MB-231 cells were pretreated with 10 μM biotin-labeled peptides for 24 hours and lysates were incubated with immobilized avidin resin overnight at 4° C. The pull down samples were subjected to SDS-PAGE followed by Western blot analysis.

T1 sequence (Q7L576 whole entry): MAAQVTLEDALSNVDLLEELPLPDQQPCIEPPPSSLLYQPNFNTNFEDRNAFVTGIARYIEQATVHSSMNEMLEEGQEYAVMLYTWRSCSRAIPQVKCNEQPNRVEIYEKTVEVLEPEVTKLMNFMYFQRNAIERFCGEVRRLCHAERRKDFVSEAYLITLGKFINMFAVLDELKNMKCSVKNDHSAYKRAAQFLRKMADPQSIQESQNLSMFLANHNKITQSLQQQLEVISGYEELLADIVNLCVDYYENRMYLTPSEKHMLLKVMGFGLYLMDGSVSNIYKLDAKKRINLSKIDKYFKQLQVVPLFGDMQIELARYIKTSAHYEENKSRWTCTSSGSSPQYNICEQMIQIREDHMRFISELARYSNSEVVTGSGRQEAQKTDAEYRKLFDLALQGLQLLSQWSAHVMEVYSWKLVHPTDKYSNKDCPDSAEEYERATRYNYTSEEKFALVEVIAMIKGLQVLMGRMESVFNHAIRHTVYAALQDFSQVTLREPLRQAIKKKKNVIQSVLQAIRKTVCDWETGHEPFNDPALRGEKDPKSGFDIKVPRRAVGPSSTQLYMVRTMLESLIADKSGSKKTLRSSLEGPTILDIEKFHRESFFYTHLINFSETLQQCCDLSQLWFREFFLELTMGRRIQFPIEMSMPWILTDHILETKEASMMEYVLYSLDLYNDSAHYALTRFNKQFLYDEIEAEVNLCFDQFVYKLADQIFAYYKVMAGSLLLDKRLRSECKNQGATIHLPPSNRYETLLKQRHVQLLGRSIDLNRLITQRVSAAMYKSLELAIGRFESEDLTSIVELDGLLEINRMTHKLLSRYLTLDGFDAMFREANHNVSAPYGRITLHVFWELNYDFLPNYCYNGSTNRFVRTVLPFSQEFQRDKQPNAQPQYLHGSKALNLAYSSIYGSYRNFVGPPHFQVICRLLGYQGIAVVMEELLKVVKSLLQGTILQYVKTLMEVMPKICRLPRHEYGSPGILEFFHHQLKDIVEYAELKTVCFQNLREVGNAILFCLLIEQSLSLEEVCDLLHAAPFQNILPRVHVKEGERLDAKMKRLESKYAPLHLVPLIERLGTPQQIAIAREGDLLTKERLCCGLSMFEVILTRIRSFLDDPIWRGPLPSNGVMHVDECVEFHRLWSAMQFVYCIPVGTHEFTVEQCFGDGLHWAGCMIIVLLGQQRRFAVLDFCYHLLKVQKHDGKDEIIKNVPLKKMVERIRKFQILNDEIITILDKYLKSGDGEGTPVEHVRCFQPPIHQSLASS

| Binder | binding result |
| --- | --- |
| B1 | no binding (tested: 10 µM) |
| B2 | no binding (tested: 10 µM) |
